The values that follow come from article PMC3197879.

This test has as its target YFP-PAX5-Foldon (not stated | phage T4) (UniProt P10104). As to the kind of experiment: SEC. On the technique in general: Size exclusion chromatography separates by hydrodynamic size, large species first.

Regarding “YFP-PAX5-Foldon (from UniProt P10104 458-484)”, the stoichiometry N (usually the number of molecules, sites or subunits per partner or assembly) came out at 3.
